Laboratory results from the supplement of paper PMC10567573.

B1: DVL3 (parent)
chain: SDVVDWLYHNVEGFTDRREARKYA
B2: C10orf62 (parent)
chain: TSECPSDKDKSPESHKAKNESWIK

Variants of: B1
Test: protein stability index of a GFP-peptide fusion (GPS, HEK-293T) (PSI 1-6); higher = more stable
Details: c terminus: a fixed tail appended
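Note: lentivirally expressed fusions sorted by FACS into six bins by GFP to DsRed ratio, PSI derived from sequencing read proportions per bin multiplied by bin number.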

Protein stability index: each site, then its substitutions
A24: Y 2.99; K 3.12; N 3.62; L 2.66; R 3.11; Q 3.71; V 2.74; I 1.95; H 3.34; F 2.82; T 2.79; W 1.09; P 3.42; M 2.68

Variants of: B2
Test: as above
Details: c terminus: a fixed tail appended

Protein stability index, by site and new letter:
S14: G 3.5; M 3.34; N 3.95; E 4.58; Q 4.13; I 3.66; W 4; D 4.49; P 3.2; K 2.82; V 3.98; F 3.89; L 3.48; Y 3
S6: I 3.35; K 2.95; N 3.76; H 3.56; T 2.92; A 4.02; Q 3.75; C 3.17; M 2.94; W 2.71; P 3.37; V 3.27; D 3.51; L 3.82; E 3.71
E13: C 3.35; H 3.02; L 2.21; A 2.77; I 2.44; Y 2.98; K 3.08; N 3.43; V 2.77; S 3.2; F 2.94; G 2.89; T 2.65; M 2.65; D 2.98
P12: E 3.15; H 3.44; T 3.54; G 3.48; A 2.87; Y 2.74; N 3.3; R 1.66; K 2.86; D 3.83; V 2.4; L 2.77; W 2.37; C 3.62; S 2.54; M 3.19
S2: N 3.74; I 3.25; R 4.43; W 3.64; A 2.63; K 3.13; E 3.98; H 3.47; T 3.03; C 3.96; P 3.17
E20: W 4.72; C 4.47; S 4.29; V 3.77; T 4.39; Q 4.13; P 4.83; K 4.37; M 3.05; L 4.56; R 4.09; A 5.18; F 4.74
A17: R 2.6; F 3.42; L 3.64; S 3.48; V 3.37; C 3.6; N 3.56; T 3.14; D 3.88
H15: R 3.31; V 3.88; D 3.92; K 4.06; G 3.69; Q 3.37; Y 3.35; L 3.48; S 3.61; C 3.2; T 2.99; W 3.33; I 4.07; P 3.92; F 3; N 2.69
K18: Q 3.9; R 3.51; N 3.6; I 3.01; S 4.15; Y 4.32; T 4.02; C 4.37; M 3.77; P 3.74; E 3.83; A 3.67; D 3.84; W 3.26; V 3.56; G 3.9; F 4.09
D9: M 3.28; L 2.54; Q 3.27; E 3; W 2.98; R 2.62; A 2.68; G 3.42; P 3.39; S 3.11; H 3.18; T 3.34; F 2.16; K 2.25
N19: V 3.41; R 2.84; M 3.64; C 3.63; A 2.83; L 3.3; G 3.92; F 2.87; P 3.19; Y 3.11
S21: N 5.12; V 4.47; F 5.12
